Results published in US20160113911A1, “METHODS AND COMPOSITIONS FOR THE TREATMENT OF CANCER” (THE GENERAL HOSPITAL CORPORATION, priority 2013, published 2016).

How the values were obtained:
H3K36me3 = test: H3K36 demethylase activity of KDM4A variants in transfected cells (immunofluorescence); format: cell-based; set-up: key: + indicates active; − indicates inactive; +/− indicates partial acitivty; conditions: KDM4A mutations
Procedure: The indicated NHF-tagged KDM4A deletion constructs were transfected into RPE cells grown on coverslips in 10 cm dishes using X-tremeGENE 9™ DNA transfection reagent (Roche). H3K36me3 and subcellular localization were assayed by examining transfected cells (positive for HA staining; HA.11 Covance) following fixation in 3.7% PFA in PBS (Whetstine et al., 2006).
All immunofluorescence experiments were performed as in (Black et al., 2013). For the localization experiment a minimum of 50 cells were blinded and scored. For the catalytic activity, cells overexpressing a high level of KDM4A WT or SNP-A482 were analyzed in a non quantitative manner.

H3K9me3 = test: H3K9 demethylase activity of KDM4 variants in transfected cells; format: cell-based; set-up: key: + indicates active; − indicates inactive; +/− indicates partial acitivty; conditions: KDM4A mutations

Molecule | H3k36 Demethylase Activity (H3K36me3) | H3k9 Demethylase Activity (H3K9me3)
2A-I87V: KDM4A mutation (protein) MASESETLNPSARIMTFYPTMEEFRNFSRYIAYIESQGAHRAGLAKVVPPKEWKPRASYDDIDDLVIPAPIQQLVTGQSGLFTQYNVQKKAMTVREFRKIANSDKYCTPRYSEFEELERKYWKNLTFNPPIYGADVNGTLYEKHVDEWNIGRLRTILDLVEKESGITIEGVNTPYLYFGMWKTSFAWHTEDMDLYSINYLHFGEPKSWYSVPPEHGKRLERLAKGFFPGSAQSCEAFLRHKMTLISPLMLKKYGIPFDKVTQEAGEFMITFPYGYHAGFNHGFNCAESTNFATRRWIEYGKQAVLCSCRKDMVKISMDVFVRKFQPERYKLWKAGKDNTVIDHTLPTPEAAEFLKESELPPRAGNEEECPEEDMEGVEDGEEGDLKTSLAKHRIGTKRHRVCLEIPQEVSQSELFPKEDLSSEQYEMTECPAALAPVRPTHSSVRQVEDGLTFPDYSDSTEVKFEELKNVKLEEEDEEEEQAAAALDLSVNPASVGGRLVFSGSKKKSSSSLGSGSSRDSISSDSETSEPLSCRAQGQTGVLTVHSYAKGDGRVTVGEPCTRKKGSAARSFSERELAEVADEYMFSLEENKKSKGRRQPLSKLPRHHPLVLQECVSDDETSEQLTPEEEAEETEAWAKPLSQLWQNRPPNFEAEKEFNETMAQQAPHCAVCMIFQTYHQVEFGGFNQNCGNASDLAPQKQRTKPLIPEMCFTSTGCSTDINLSTPYLEEDGTSILVSCKKCSVRVHASCYGVPPAKASEDWMCSRCSANALEEDCCLCSLRGGALQRANDDRWVHVSCAVAILEARFVNIAERSPVDVSKIPLPRFKLKCIFCKKRRKRTAGCCVQCSHGRCPTAFHVSCAQAAGVMMQPDDWPFVVFITCFRHKIPNLERAKGALQSITAGQKVISKHKNGRFYQCEVVRLTTETFYEVNFDDGSFSDNLYPEDIVSQDCLQFGPPAEGEVVQVRWTDGQVYGAKFVASHPIQMYQVEFEDGSQLVVKRDDVYTLDEELPKRVKSRLSVASDMRFNEIFTEKEVKQEKKRQRVINSRYREDYIEPALYRAIME | + | +
2A-V919M: KDM4A mutation (protein) MASESETLNPSARIMTFYPTMEEFRNFSRYIAYIESQGAHRAGLAKVVPPKEWKPRASYDDIDDLVIPAPIQQLVTGQSGLFTQYNIQKKAMTVREFRKIANSDKYCTPRYSEFEELERKYWKNLTFNPPIYGADVNGTLYEKHVDEWNIGRLRTILDLVEKESGITIEGVNTPYLYFGMWKTSFAWHTEDMDLYSINYLHFGEPKSWYSVPPEHGKRLERLAKGFFPGSAQSCEAFLRHKMTLISPLMLKKYGIPFDKVTQEAGEFMITFPYGYHAGFNHGFNCAESTNFATRRWIEYGKQAVLCSCRKDMVKISMDVFVRKFQPERYKLWKAGKDNTVIDHTLPTPEAAEFLKESELPPRAGNEEECPEEDMEGVEDGEEGDLKTSLAKHRIGTKRHRVCLEIPQEVSQSELFPKEDLSSEQYEMTECPAALAPVRPTHSSVRQVEDGLTFPDYSDSTEVKFEELKNVKLEEEDEEEEQAAAALDLSVNPASVGGRLVFSGSKKKSSSSLGSGSSRDSISSDSETSEPLSCRAQGQTGVLTVHSYAKGDGRVTVGEPCTRKKGSAARSFSERELAEVADEYMFSLEENKKSKGRRQPLSKLPRHHPLVLQECVSDDETSEQLTPEEEAEETEAWAKPLSQLWQNRPPNFEAEKEFNETMAQQAPHCAVCMIFQTYHQVEFGGFNQNCGNASDLAPQKQRTKPLIPEMCFTSTGCSTDINLSTPYLEEDGTSILVSCKKCSVRVHASCYGVPPAKASEDWMCSRCSANALEEDCCLCSLRGGALQRANDDRWVHVSCAVAILEARFVNIAERSPVDVSKIPLPRFKLKCIFCKKRRKRTAGCCVQCSHGRCPTAFHVSCAQAAGVMMQPDDWPFVVFITCFRHKIPNLERAKGALQSITAGQKVISKHKNGRFYQCEMVRLTTETFYEVNFDDGSFSDNLYPEDIVSQDCLQFGPPAEGEVVQVRWTDGQVYGAKFVASHPIQMYQVEFEDGSQLVVKRDDVYTLDEELPKRVKSRLSVASDMRFNEIFTEKEVKQEKKRQRVINSRYREDYIEPALYRAIME | + | 
2A-K123I: KDM4A mutation (protein) MASESETLNPSARIMTFYPTMEEFRNFSRYIAYIESQGAHRAGLAKVVPPKEWKPRASYDDIDDLVIPAPIQQLVTGQSGLFTQYNIQKKAMTVREFRKIANSDKYCTPRYSEFEELERKYWINLTFNPPIYGADVNGTLYEKHVDEWNIGRLRTILDLVEKESGITIEGVNTPYLYFGMWKTSFAWHTEDMDLYSINYLHFGEPKSWYSVPPEHGKRLERLAKGFFPGSAQSCEAFLRHKMTLISPLMLKKYGIPFDKVTQEAGEFMITFPYGYHAGFNHGFNCAESTNFATRRWIEYGKQAVLCSCRKDMVKISMDVFVRKFQPERYKLWKAGKDNTVIDHTLPTPEAAEFLKESELPPRAGNEEECPEEDMEGVEDGEEGDLKTSLAKHRIGTKRHRVCLEIPQEVSQSELFPKEDLSSEQYEMTECPAALAPVRPTHSSVRQVEDGLTFPDYSDSTEVKFEELKNVKLEEEDEEEEQAAAALDLSVNPASVGGRLVFSGSKKKSSSSLGSGSSRDSISSDSETSEPLSCRAQGQTGVLTVHSYAKGDGRVTVGEPCTRKKGSAARSFSERELAEVADEYMFSLEENKKSKGRRQPLSKLPRHHPLVLQECVSDDETSEQLTPEEEAEETEAWAKPLSQLWQNRPPNFEAEKEFNETMAQQAPHCAVCMIFQTYHQVEFGGFNQNCGNASDLAPQKQRTKPLIPEMCFTSTGCSTDINLSTPYLEEDGTSILVSCKKCSVRVHASCYGVPPAKASEDWMCSRCSANALEEDCCLCSLRGGALQRANDDRWVHVSCAVAILEARFVNIAERSPVDVSKIPLPRFKLKCIFCKKRRKRTAGCCVQCSHGRCPTAFHVSCAQAAGVMMQPDDWPFVVFITCFRHKIPNLERAKGALQSITAGQKVISKHKNGRFYQCEVVRLTTETFYEVNFDDGSFSDNLYPEDIVSQDCLQFGPPAEGEVVQVRWTDGQVYGAKFVASHPIQMYQVEFEDGSQLVVKRDDVYTLDEELPKRVKSRLSVASDMRFNEIFTEKEVKQEKKRQRVINSRYREDYIEPALYRAIME | + | 
2A-E113K: KDM4A mutation (protein) MASESETLNPSARIMTFYPTMEEFRNFSRYIAYIESQGAHRAGLAKVVPPKEWKPRASYDDIDDLVIPAPIQQLVTGQSGLFTQYNIQKKAMTVREFRKIANSDKYCTPRYSKFEELERKYWKNLTFNPPIYGADVNGTLYEKHVDEWNIGRLRTILDLVEKESGITIEGVNTPYLYFGMWKTSFAWHTEDMDLYSINYLHFGEPKSWYSVPPEHGKRLERLAKGFFPGSAQSCEAFLRHKMTLISPLMLKKYGIPFDKVTQEAGEFMITFPYGYHAGFNHGFNCAESTNFATRRWIEYGKQAVLCSCRKDMVKISMDVFVRKFQPERYKLWKAGKDNTVIDHTLPTPEAAEFLKESELPPRAGNEEECPEEDMEGVEDGEEGDLKTSLAKHRIGTKRHRVCLEIPQEVSQSELFPKEDLSSEQYEMTECPAALAPVRPTHSSVRQVEDGLTFPDYSDSTEVKFEELKNVKLEEEDEEEEQAAAALDLSVNPASVGGRLVFSGSKKKSSSSLGSGSSRDSISSDSETSEPLSCRAQGQTGVLTVHSYAKGDGRVTVGEPCTRKKGSAARSFSERELAEVADEYMFSLEENKKSKGRRQPLSKLPRHHPLVLQECVSDDETSEQLTPEEEAEETEAWAKPLSQLWQNRPPNFEAEKEFNETMAQQAPHCAVCMIFQTYHQVEFGGFNQNCGNASDLAPQKQRTKPLIPEMCFTSTGCSTDINLSTPYLEEDGTSILVSCKKCSVRVHASCYGVPPAKASEDWMCSRCSANALEEDCCLCSLRGGALQRANDDRWVHVSCAVAILEARFVNIAERSPVDVSKIPLPRFKLKCIFCKKRRKRTAGCCVQCSHGRCPTAFHVSCAQAAGVMMQPDDWPFVVFITCFRHKIPNLERAKGALQSITAGQKVISKHKNGRFYQCEVVRLTTETFYEVNFDDGSFSDNLYPEDIVSQDCLQFGPPAEGEVVQVRWTDGQVYGAKFVASHPIQMYQVEFEDGSQLVVKRDDVYTLDEELPKRVKSRLSVASDMRFNEIFTEKEVKQEKKRQRVINSRYREDYIEPALYRAIME | + | +/−
2A-R152W*: KDM4A mutation (protein, UniProt O75164 2-1064, looked up, variant R152W) Lysine-specific demethylase 4A: ASESETLNPSARIMTFYPTMEEFRNFSRYIAYIESQGAHRAGLAKVVPPKEWKPRASYDDIDDLVIPAPIQQLVTGQSGLFTQYNIQKKAMTVREFRKIANSDKYCTPRYSEFEELERKYWKNLTFNPPIYGADVNGTLYEKHVDEWNIGWLRTILDLVEKESGITIEGVNTPYLYFGMWKTSFAWHTEDMDLYSINYLHFGEPKSWYSVPPEHGKRLERLAKGFFPGSAQSCEAFLRHKMTLISPLMLKKYGIPFDKVTQEAGEFMITFPYGYHAGFNHGFNCAESTNFATRRWIEYGKQAVLCSCRKDMVKISMDVFVRKFQPERYKLWKAGKDNTVIDHTLPTPEAAEFLKESELPPRAGNEEECPEEDMEGVEDGEEGDLKTSLAKHRIGTKRHRVCLEIPQEVSQSELFPKEDLSSEQYEMTECPAALAPVRPTHSSVRQVEDGLTFPDYSDSTEVKFEELKNVKLEEEDEEEEQAAAALDLSVNPASVGGRLVFSGSKKKSSSSLGSGSSRDSISSDSETSEPLSCRAQGQTGVLTVHSYAKGDGRVTVGEPCTRKKGSAARSFSERELAEVADEYMFSLEENKKSKGRRQPLSKLPRHHPLVLQECVSDDETSEQLTPEEEAEETEAWAKPLSQLWQNRPPNFEAEKEFNETMAQQAPHCAVCMIFQTYHQVEFGGFNQNCGNASDLAPQKQRTKPLIPEMCFTSTGCSTDINLSTPYLEEDGTSILVSCKKCSVRVHASCYGVPPAKASEDWMCSRCSANALEEDCCLCSLRGGALQRANDDRWVHVSCAVAILEARFVNIAERSPVDVSKIPLPRFKLKCIFCKKRRKRTAGCCVQCSHGRCPTAFHVSCAQAAGVMMQPDDWPFVVFITCFRHKIPNLERAKGALQSITAGQKVISKHKNGRFYQCEVVRLTTETFYEVNFDDGSFSDNLYPEDIVSQDCLQFGPPAEGEVVQVRWTDGQVYGAKFVASHPIQMYQVEFEDGSQLVVKRDDVYTLDEELPKRVKSRLSVASDMRFNEIFTEKEVKQEKKRQRVINSRYREDYIEPALYRAIME | + | +
